Experimental data as given in CN115819578A (WUHAN ABCLONAL INC, dated 2023).
Blank lines part the entries; values can stand above or below the binder they belong to.

Molecular target: T1, 重组人IL-5蛋白 (recombinant Human IL-5, R&D Systems 205-IL-005) (human, UniProt P05113 20-134)
T1 construct: Bought protein; also called 重组human IL-5; His-tag重组human IL-5
T1 sequence (looked up): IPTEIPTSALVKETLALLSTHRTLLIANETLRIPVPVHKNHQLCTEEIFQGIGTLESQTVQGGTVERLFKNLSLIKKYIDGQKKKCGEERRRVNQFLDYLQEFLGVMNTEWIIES
Test: BLI (Probe Life Gator), antibody 2 μg/mL on proA probe, recombinant human IL-5 at 150 nM and 70 nM

Kd: 0.306 nM
B1: 兔单克隆抗体24A10 (anti-human IL-5 rabbit monoclonal antibody 24A10) (antibody, V domains shown)
VH: QSLEESGGGLVQPEGSLTLTCTASGFSFSSSYYMCWVRQAPGKGLEWIGCIAAGSSGISYYASWAKGRFTISKTSSTTVTLQMTGLTAADTATYLCSRSCDIYSDGGTSFDLWGPGTLVTVSS
VL: DVVMTQTPASVSEPVGGTVTIKCQASQSISSYLAWYQQKPGQPPKLLIYEASKLASGVPSRFKGSGSGTEFTLTISDLECADAATYYCESNYDITSSYFGGGTEVVVKG
notes: in the BLI assays it was unlabelled; also called 24A10抗体; 人IL-5兔单克隆抗体24A10

Kd: 4.03 nM
B2: 兔单克隆抗体16D2 (anti-human IL-5 rabbit monoclonal antibody 16D2) (antibody, V domains shown)
VH: QEQLEESGGDLVKPEGSLTLTCTASGFSFSINYWICWVRQAPGKGLEWIACIYGGSSGSAYYATWAKGRFTISKTSSTTVTLQMTSLTAADTATYFCARDDEGGGIFYNLWGPGTLVTVSS
VL: AYDMTQTPSSASEPVGGTVTIKCQASEDIYNLLAWYQQKPGQPPKLLIYSASTLASGVPSRFKGSGSGTEYTLTISDLECADAATYYCEQHYTPSNVHNTFGGGTEVVVKG
notes: also called 16D2抗体; 抗人IL-5兔单克隆抗体16D2
